Patent US20090265797A1 (PIERRE FABRE MEDICAMENT, published 2009)

Tests used:
[1] = target: soluble human insulin-like growth factor-1 receptor (hIGF-IR) extra-cellular domain (ECD) (human) (UniProt P08069); assay: SPR, BIAcore T100, 25 °C; antibody captured by anti-human IgG Fc on CM5, hIGF-IR-ECD as analyte (6.25-100 nM)
[2] = target: soluble human insulin-like growth factor-1 receptor (hIGF-IR) extra-cellular domain (ECD) (human) (UniProt P08069); assay: SPR, BIAcore T100, 25 °C; antibody captured by anti-human IgG Fc on CM5, hIGF-IR-ECD as analyte; KD = kd/ka
[3] = target: T1, human IGF-IR (hIGF-IR) from membrane lysate of NIH 3T3 cells stably transfected with the human IGF-IR cDNA, … (human, UniProt P08069 31-1367); assay: competition of 100 pM [125I]-IGF1 binding to immobilized hIGF-IR; reference: unlabeled IGF1
T1 construct: Whole receptor (alpha and beta subunits from one precursor) solubilised from membranes, not on cells; also called immobilized hIGF-IR; human IGF-1 receptor
T1 sequence (P08069 31-1367 limits assumed): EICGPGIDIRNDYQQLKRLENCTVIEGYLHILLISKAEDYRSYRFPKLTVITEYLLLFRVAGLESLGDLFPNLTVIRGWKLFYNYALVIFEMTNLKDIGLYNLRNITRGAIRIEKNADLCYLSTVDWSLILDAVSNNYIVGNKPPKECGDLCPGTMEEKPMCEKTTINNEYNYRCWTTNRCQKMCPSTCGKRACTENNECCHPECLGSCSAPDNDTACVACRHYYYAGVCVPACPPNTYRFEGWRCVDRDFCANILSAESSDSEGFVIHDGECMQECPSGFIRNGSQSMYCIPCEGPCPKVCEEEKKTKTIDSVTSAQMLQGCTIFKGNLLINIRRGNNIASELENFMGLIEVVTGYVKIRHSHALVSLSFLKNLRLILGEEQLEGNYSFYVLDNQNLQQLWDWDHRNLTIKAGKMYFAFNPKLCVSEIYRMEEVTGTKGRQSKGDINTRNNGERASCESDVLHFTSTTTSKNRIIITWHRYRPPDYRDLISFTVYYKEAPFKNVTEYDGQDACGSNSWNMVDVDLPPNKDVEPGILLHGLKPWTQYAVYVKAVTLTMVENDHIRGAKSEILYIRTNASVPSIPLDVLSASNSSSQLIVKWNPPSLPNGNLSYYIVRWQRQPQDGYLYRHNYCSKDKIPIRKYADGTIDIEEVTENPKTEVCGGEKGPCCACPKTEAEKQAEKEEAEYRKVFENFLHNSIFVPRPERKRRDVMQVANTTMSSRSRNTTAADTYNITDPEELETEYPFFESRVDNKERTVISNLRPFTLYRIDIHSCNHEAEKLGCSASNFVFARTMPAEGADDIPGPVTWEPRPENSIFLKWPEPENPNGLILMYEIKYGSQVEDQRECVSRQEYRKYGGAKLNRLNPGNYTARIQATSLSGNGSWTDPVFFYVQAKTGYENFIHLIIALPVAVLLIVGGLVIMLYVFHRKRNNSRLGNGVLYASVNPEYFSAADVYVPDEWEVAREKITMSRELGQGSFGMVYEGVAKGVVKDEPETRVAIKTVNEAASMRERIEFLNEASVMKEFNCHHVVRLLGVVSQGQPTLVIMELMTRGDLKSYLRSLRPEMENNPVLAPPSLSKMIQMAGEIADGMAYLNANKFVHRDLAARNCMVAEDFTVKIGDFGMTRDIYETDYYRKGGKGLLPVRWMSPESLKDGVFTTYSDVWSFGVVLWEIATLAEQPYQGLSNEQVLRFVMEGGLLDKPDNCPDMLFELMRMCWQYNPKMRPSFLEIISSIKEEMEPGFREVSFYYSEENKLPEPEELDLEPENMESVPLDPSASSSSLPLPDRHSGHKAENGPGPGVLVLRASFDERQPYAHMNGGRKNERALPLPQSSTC
Method: (§1) Two hundred μl of a 20 μg/ml antibody solution in PBS were added to each well and incubated overnight at +4° C. The buffer containing residual 17-69 not attached to protein A was removed by aspiration. Two hundred μl of the membrane lysate at 100 μg/ml were further added and incubated for 2 h at room temperature to immobilize IGF-IR. Non captured proteins were removed by aspiration. […] The plates were incubated at room temperature for 2 h, then counted on a Packard Top Count Microplate Scintillation Counter.
(§2) Concentrations of the various inhibitors required to inhibit the radioligand binding by 50% (IC₅₀) were determined graphically from the sigmoid competition curves obtained (FIGS. 1 and 2).

[4] = target: T1, human IGF-IR (hIGF-IR) from membrane …; assay: competition of 100 pM [125I]-IGF1 binding to hIGF-IR captured by antibody 17-69 on Protein A FlashPlate; displacement of [^125I]-IGF1 (not [^125I]-IGF2) from immobilized hIGF-IR
Method: as §1, §2

[5] = target: T1, human IGF-IR (hIGF-IR) from membrane …; assay: competition of 100 pM [125I]-IGF2 binding to hIGF-IR captured by antibody 17-69 on Protein A FlashPlate
Method: as §1, §2

[6] = target: IGF-IR on MCF-7 or HT29 cells (human, UniProt P08069 31-1367); assay: cell-based or functional assay
Sequence of IGF-IR on MCF-7 or HT29 cells (P08069 31-1367): as the sequence (P08069 31-1367 limits assumed) above

Row | koff [1] [s⁻¹] | kon [1] [M⁻¹ s⁻¹] | Kd [2] [nM] | fold lower IC50 than non radiolabeled IGF1 [3] [fold] | IC50 [4] [nM] | IC50 [5] [nM] | IC50 of inhibition of IGF1-induced proliferation of MCF-7 cells [6] [nM] | IC50 of inhibition of IGF2-induced proliferation of MCF-7 cells [6] [nM] | Binder
1 | 6.29e-05 | 184000 | 0.342 | – | – | – | – | – | Humanized I-3466 IgG1 antibody (antibody, V domains shown) VH: EVQLVESGGDLVQPGGSLRLSCAASGFTFNNYIMSWVRQAPGKGLEWVATISGGGSYTFYPDSVKGRFTISRDNSKNTLYLQMNSLRAEDTAVYFCTRNQLLTGMINPLTTPRAWFTYWGQGTLVTVSS VL: DIVMTQSPDSLAVSLGERATINCKSSQSLLDSRTRKNYLAWYQQKPGQPPKLLIYWASTRESGVPDRFSGSGSGTDFTLTISSLQAEDVAVYYCKQSYNLFTFGGGTKVEIK
2 | – | – | – | 30 | 0.021 | ~0.1 | 0.7 | 0.5 | murine monoclonal antibody I-3466 (antibody, V domains shown, a mouse IgG1 (9G4) served as its isotype control) VH: EVMLVESGGDLVKPGGSLKLSCAASGFTFNNYIMSWVRQTPEKRLEWVATISGGGSYTFYPDSVKGRFSISRDNAKNTLYLQMSSLRSEDTAMYFCTRNQLLTGMINPLTTPRAWFTYWGQGTLVTVSA VL: DIVMSQSPSSLAVSAGEKVTMNCKSSQSLLDSRTRKNYLAWYQQKPGQSPKLLIYWASTRESGVPDRFTGSGSGTDFTLTISSVQAEDLAVYYCKQSYNLFTFGGGTKLEIK
